Drawing on publication PMC4148261, this text covers fluorescence counts for one molecule.

For this experiment, the target named is Recombinant His-tagged Hsp70 protein, equivalent to HSPA1A. Description: ELISA; peptide ELISA: heat shock proteins coated on MaxiSorp plates (1 µg/well/100 µl, carbonate buffer pH 9.6, 4°C overnight), blocked with PBS 2% BSA; CF-labeled peptides 100, 50, 25 ng/ml, 27°C 30 min; fluorescence counts read. For orientation: ELISA stands for enzyme-linked immunosorbent assay.

Where no end group is shown, it is not given here.

In the case of TKDNNLLGRFELSG (also: carboxyfluorescein (CF) label, position not given here) [carboxy-fluorescein (CF-) labeled 14-mer tumor penetrating peptide (TPP)], the fluorescence counts was determined as 1200 counts.
